Article PMC2756588

T1: Lsb3, P43603
T1 sequence (P43603 385-451, looked up): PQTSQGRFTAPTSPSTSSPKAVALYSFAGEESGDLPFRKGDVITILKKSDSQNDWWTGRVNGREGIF

T2: Bzz1-2, P38822
T2 sequence (P38822 568-633, looked up): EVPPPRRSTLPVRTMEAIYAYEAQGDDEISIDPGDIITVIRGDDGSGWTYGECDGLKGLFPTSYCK

T3: Myo5, Q04439
T3 sequence (Q04439 1072-1160, looked up): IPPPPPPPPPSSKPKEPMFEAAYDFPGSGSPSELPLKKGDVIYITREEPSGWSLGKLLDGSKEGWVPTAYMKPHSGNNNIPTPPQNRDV

T4: Bzz1-1, P38822
T4 sequence (P38822 478-572, looked up): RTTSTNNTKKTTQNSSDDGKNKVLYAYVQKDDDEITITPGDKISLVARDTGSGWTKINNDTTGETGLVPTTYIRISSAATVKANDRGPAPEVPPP

T5: Bud14, P27637
T5 sequence (P27637 247-328, looked up): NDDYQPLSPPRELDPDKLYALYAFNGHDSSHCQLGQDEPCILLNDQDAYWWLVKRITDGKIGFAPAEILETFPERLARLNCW

T6: Cdc25, P04821
T6 sequence (P04821 50-136, looked up): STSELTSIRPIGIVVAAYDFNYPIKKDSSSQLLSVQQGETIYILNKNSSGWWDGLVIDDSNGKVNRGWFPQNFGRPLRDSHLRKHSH

T7: Sla1-2, P32790
T7 sequence (P32790 60-140, looked up): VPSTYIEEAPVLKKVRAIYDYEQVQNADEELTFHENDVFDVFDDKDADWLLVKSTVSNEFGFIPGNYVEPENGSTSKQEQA

T8: Bbc1, P47068
T8 sequence (P47068 1-78, looked up): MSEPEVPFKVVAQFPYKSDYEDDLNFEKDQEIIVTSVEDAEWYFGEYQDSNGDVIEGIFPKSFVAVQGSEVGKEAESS

T9: Boi1, P38041
T9 sequence (P38041 1-86, looked up): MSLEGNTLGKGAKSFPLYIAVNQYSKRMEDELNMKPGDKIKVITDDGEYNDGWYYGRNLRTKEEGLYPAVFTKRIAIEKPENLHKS

T10: Hof1, Q05080
T10 sequence (Q05080 590-669, looked up): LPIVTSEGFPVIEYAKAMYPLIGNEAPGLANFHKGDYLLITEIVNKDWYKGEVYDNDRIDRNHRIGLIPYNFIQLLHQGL

T11: Fus1, P11710
T11 sequence (P11710 432-512, looked up): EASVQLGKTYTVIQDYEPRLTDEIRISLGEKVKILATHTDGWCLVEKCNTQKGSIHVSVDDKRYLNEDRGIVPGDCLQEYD

T12: Nbp2, Q12163
T12 sequence (Q12163 103-180, looked up): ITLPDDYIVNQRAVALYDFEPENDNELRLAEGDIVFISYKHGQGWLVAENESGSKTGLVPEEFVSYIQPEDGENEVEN

T13: Boi2, P39969
T13 sequence (P39969 32-116, looked up): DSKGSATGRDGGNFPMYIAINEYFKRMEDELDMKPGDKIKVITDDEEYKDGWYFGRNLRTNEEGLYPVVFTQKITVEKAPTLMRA

T14: Pex13, P80667
T14 sequence (P80667 295-386, looked up): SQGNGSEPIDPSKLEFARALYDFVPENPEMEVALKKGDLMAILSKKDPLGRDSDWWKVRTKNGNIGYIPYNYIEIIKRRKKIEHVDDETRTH

T15: Sla1-3, P32790
T15 sequence (P32790 344-424, looked up): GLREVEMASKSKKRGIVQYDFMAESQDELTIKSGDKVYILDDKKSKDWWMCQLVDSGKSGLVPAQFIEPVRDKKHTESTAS

T16: Lsb1, P53281
T16 sequence (P53281 45-122, looked up): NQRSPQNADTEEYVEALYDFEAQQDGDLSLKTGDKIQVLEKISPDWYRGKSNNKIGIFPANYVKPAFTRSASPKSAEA

T17: Cyk3, Q07533
T17 sequence (Q07533 1-83, looked up): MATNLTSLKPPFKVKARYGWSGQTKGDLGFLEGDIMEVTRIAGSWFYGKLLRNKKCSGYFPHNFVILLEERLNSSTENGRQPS

T18: Hse1, P38753
T18 sequence (P38753 208-285, looked up): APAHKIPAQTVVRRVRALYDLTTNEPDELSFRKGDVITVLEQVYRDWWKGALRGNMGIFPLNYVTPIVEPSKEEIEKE

T19: Pin3, Q06449
T19 sequence (Q06449 53-122, looked up): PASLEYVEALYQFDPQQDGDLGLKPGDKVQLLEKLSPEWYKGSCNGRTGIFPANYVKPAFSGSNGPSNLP

T20: Lsb4, P32793
T20 sequence (P32793 402-468, looked up): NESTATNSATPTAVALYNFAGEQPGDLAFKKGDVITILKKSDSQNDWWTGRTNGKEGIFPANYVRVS

T21: Abp1, P15891
T21 sequence (P15891 535-592, looked up): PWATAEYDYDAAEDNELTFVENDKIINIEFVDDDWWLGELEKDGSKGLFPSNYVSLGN

B1: unnamed (peptide)
chain: QNTPPLPPKPKSPHL
B2: unnamed (peptide)
chain: SSSSSPPPLPTRRDH
B3: unnamed (peptide)
chain: TSFKGRPKPPKTLKH
B4: unnamed (peptide)
chain: ATKSASPTLPTRRSR
B5: unnamed (peptide)
chain: SKIRPTPRKPSRMAT
B6: unnamed (peptide)
chain: KKAPPPVVKPKPRNF

Target: T1, Lsb3, P43603
Assay: SPOT array
Details: median of control spots 406

| SPOT intensity | Binder |
| --- | --- |
| 249 | B1 |
| 485 | B2 |
| 0 | B3 |
| 834 | B4 |
| 124 | B5 |
| 0 | B6 |

Target: T2, Bzz1-2, P38822
Assay: SPOT array
Details: median of control spots 4538

| SPOT intensity | Binder |
| --- | --- |
| 2 | B1 |
| 3 | B2 |
| 11 | B3 |
| 1 | B4 |
| 16 | B5 |
| 360 | B6 |

Target: T3, Myo5, Q04439
Assay: SPOT array
Details: median of control spots 471

| SPOT intensity | Binder |
| --- | --- |
| 0 | B1 |
| 19 | B2 |
| 0 | B3 |
| 0 | B4 |
| 23 | B5 |
| 0 | B6 |

Target: Sho1, P40073
Sequence (P40073 287-367): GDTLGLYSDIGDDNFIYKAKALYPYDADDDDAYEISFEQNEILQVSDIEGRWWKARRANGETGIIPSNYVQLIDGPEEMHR
Assay: SPOT array
Details: median of control spots 1148

| SPOT intensity | Binder |
| --- | --- |
| 72 | B1 |
| 0 | B2 |
| 43 | B3 |
| 132 | B4 |
| 177 | B5 |
| 21 | B6 |

Target: Bem1-1, P29366
Sequence (P29366 55-141): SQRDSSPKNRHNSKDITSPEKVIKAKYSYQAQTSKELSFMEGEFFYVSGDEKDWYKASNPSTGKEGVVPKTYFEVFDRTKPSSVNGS
Assay: SPOT array
Details: median of control spots 4282

| SPOT intensity | Binder |
| --- | --- |
| 0 | B1 |
| 8 | B2 |
| 0 | B3 |
| 3 | B4 |
| 6 | B5 |
| 0 | B6 |

Target: T4, Bzz1-1, P38822
Assay: SPOT array
Details: median of control spots 4446

| SPOT intensity | Binder |
| --- | --- |
| 0 | B1 |
| 6 | B2 |
| 0 | B3 |
| 3 | B4 |
| 6 | B5 |
| 10 | B6 |

Target: T5, Bud14, P27637
Assay: SPOT array
Details: median of control spots 956

| SPOT intensity | Binder |
| --- | --- |
| 0 | B1 |
| 0 | B2 |
| 1 | B3 |
| 8 | B4 |
| 13 | B5 |
| 3 | B6 |

Target: Rvs167, P39743
Sequence (P39743 419-482): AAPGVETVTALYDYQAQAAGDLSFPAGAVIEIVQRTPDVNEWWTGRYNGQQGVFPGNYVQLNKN
Assay: SPOT array
Details: median of control spots 2707

| SPOT intensity | Binder |
| --- | --- |
| 8 | B1 |
| 3540 | B2 |
| 0 | B3 |
| 1540 | B4 |
| 148 | B5 |
| 1 | B6 |

Target: Bem1-2, P29366
Sequence (P29366 139-227): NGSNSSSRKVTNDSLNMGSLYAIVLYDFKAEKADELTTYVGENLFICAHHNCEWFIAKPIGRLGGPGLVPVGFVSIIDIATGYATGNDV
Assay: SPOT array
Details: median of control spots 4347

| SPOT intensity | Binder |
| --- | --- |
| 16 | B1 |
| 13 | B2 |
| 0 | B3 |
| 18 | B4 |
| 50 | B5 |
| 0 | B6 |

Target: T6, Cdc25, P04821
Assay: SPOT array
Details: median of control spots 969

| SPOT intensity | Binder |
| --- | --- |
| 0 | B1 |
| 15 | B2 |
| 2 | B3 |
| 22 | B4 |
| 35 | B5 |
| 15 | B6 |

Target: T7, Sla1-2, P32790
Assay: SPOT array
Details: median of control spots 712

| SPOT intensity | Binder |
| --- | --- |
| 1 | B1 |
| 0 | B2 |
| 0 | B3 |
| 8 | B4 |
| 21 | B5 |
| 2 | B6 |

Target: T8, Bbc1, P47068
Assay: SPOT array
Details: median of control spots 796

| SPOT intensity | Binder |
| --- | --- |
| 0 | B1 |
| 3 | B2 |
| 5 | B3 |
| 79 | B4 |
| 37 | B5 |
| 2 | B6 |

Target: T9, Boi1, P38041
Assay: SPOT array
Details: median of control spots 1162

| SPOT intensity | Binder |
| --- | --- |
| 3 | B1 |
| 4 | B2 |
| 1 | B3 |
| 3 | B4 |
| 4 | B5 |
| 0 | B6 |

Target: T10, Hof1, Q05080
Assay: SPOT array
Details: median of control spots 4086

| SPOT intensity | Binder |
| --- | --- |
| 1320 | B1 |
| 16 | B2 |
| 1 | B3 |
| 0 | B4 |
| 8 | B5 |
| 10 | B6 |

Target: GST
Assay: SPOT array
Details: median of control spots 978

| SPOT intensity | Binder |
| --- | --- |
| 2 | B1 |
| 1 | B2 |
| 0 | B3 |
| 1 | B4 |
| 2 | B5 |
| 3 | B6 |

Target: T11, Fus1, P11710
Assay: SPOT array
Details: median of control spots 1200

| SPOT intensity | Binder |
| --- | --- |
| 0 | B1 |
| 1 | B2 |
| 1 | B3 |
| 2 | B4 |
| 12 | B5 |
| 1 | B6 |

Target: T12, Nbp2, Q12163
Assay: SPOT array
Details: median of control spots 357

| SPOT intensity | Binder |
| --- | --- |
| 1 | B1 |
| 0 | B2 |
| 0 | B3 |
| 2 | B4 |
| 44 | B5 |
| 0 | B6 |

Target: T13, Boi2, P39969
Assay: SPOT array
Details: median of control spots 1161

| SPOT intensity | Binder |
| --- | --- |
| 0 | B1 |
| 4 | B2 |
| 0 | B3 |
| 0 | B4 |
| 3 | B5 |
| 3 | B6 |

Target: T14, Pex13, P80667
Assay: SPOT array
Details: median of control spots 1341

| SPOT intensity | Binder |
| --- | --- |
| 309 | B1 |
| 467 | B2 |
| 3 | B3 |
| 249 | B4 |
| 40 | B5 |
| 4 | B6 |

Target: T15, Sla1-3, P32790
Assay: SPOT array
Details: median of control spots 5475

| SPOT intensity | Binder |
| --- | --- |
| 0 | B1 |
| 7 | B2 |
| 2 | B3 |
| 1 | B4 |
| 21 | B5 |
| 0 | B6 |

Target: T16, Lsb1, P53281
Assay: SPOT array
Details: median of control spots 388

| SPOT intensity | Binder |
| --- | --- |
| 0 | B1 |
| 463 | B2 |
| 0 | B3 |
| 56 | B4 |
| 10 | B5 |
| 4 | B6 |

Target: Myo3, P36006
Assay: SPOT array
Details: median of control spots 468

| SPOT intensity | Binder |
| --- | --- |
| 0 | B1 |
| 69 | B2 |
| 0 | B3 |
| 12 | B4 |
| 50 | B5 |
| 0 | B6 |

Target: T17, Cyk3, Q07533
Assay: SPOT array
Details: median of control spots 1451

| SPOT intensity | Binder |
| --- | --- |
| 0 | B1 |
| 1 | B2 |
| 2 | B3 |
| 1 | B4 |
| 6 | B5 |
| 5 | B6 |

Target: T18, Hse1, P38753
Assay: SPOT array
Details: median of control spots 1727

| SPOT intensity | Binder |
| --- | --- |
| 634 | B1 |
| 4 | B2 |
| 2 | B3 |
| 2 | B4 |
| 19 | B5 |
| 0 | B6 |

Target: T19, Pin3, Q06449
Assay: SPOT array
Details: median of control spots 2171

| SPOT intensity | Binder |
| --- | --- |
| 0 | B1 |
| 0 | B2 |
| 4 | B3 |
| 20 | B4 |
| 20 | B5 |
| 1 | B6 |

Target: T20, Lsb4, P32793
Assay: SPOT array
Details: median of control spots 397

| SPOT intensity | Binder |
| --- | --- |
| 231 | B1 |
| 748 | B2 |
| 0 | B3 |
| 1180 | B4 |
| 162 | B5 |
| 0 | B6 |

Target: T21, Abp1, P15891
Assay: SPOT array
Details: median of control spots 935

| SPOT intensity | Binder |
| --- | --- |
| 16 | B1 |
| 0 | B2 |
| 128 | B3 |
| 182 | B4 |
| 345 | B5 |
| 899 | B6 |
